experiment: soluble on expression in E. coli; label from the status in PepcDB or PDB records

Soluble on expression in E. coli, not soluble:
MGSDKIHHHHHHMTQQNGKVYLVGAGPGDVAYLTVKAYNLLATAQVLVYDALVDEQLLQCVSPDCLKLDVGKRGGKPSTPQADINHLLVKYCQEGALVVRLKSGDPFIFGRCTSEIEALKAAGCKFEVVPGISSSIAAPLLAGIPLTDPVMSRCFAVLTAHEPEVLDWEALSRLDTLVILMGGKNLADIINELLRRGQSHLTPIAIIRWAGTPSQQIWTGQLGDILEQTRGLSLSPAVIVIGEVVGLRKYLQPEKIFPENSTTPMSSNQPLTGKTILVTRSSGQSSQFSDRLTTLGATVIEMPALEIGSPSSWEELDQAIANLSQFEWLILTSTNGVDYFFERLNLQGKDTRALAGVKIAVVGEKTSQSLKQRGIQADFIPPNFVADSLVEHFPESLLNKKILFPRVESGGREILVKELSAKGAEVIEVAAYQSCCPSSIPPAAELALKNHTIDIITFASSKTVQFFHQLVDNIFPHNIPNTLAGICIASIGPQTSKTCHTLLGRVDVEAEEYTLDGLTQSIINWALKV, MGSDKIHHHHHHMTQTQPKFLTIYNTLYKEIQIGKYPSGHALPTEKELCARFDVSRMTLRQAIKLLAEDGIVESTRGKGHFVIPQTNAQHASSMDQFKHPLDQILLARVSMSSINYRVDLESEYTNHLFANHPSAVIAMERYYQKKDNHSKQADAFCFTFIPLNVIDTFKVNTQNEDDMKTFVEQTIYSNAYQSDLKMSITKAPRFKNHSHVFDGDTHCWLIIETLYAQTPYPIMINKWYIPQEISELTLTRIRQSDY, MGSDKIHHHHHHMTQVIPPRCDTCACDDADWCHLQETTKLLLLATAQIELSLTDGDHNVTGLGQLFTQMAGHLTEVNRHLHGTADTPAAILAHSDSLMQAIDSGVMAFQFYDRISQRLNHVITALSLMEAMLGDEQRRHSQAAWTNLQGEIQAHYSLDCERQMFAALLEGVPIHEALNAYRETHLHQTKQDVELF, MGSDKIHHHHHHMTRSEAQGRLTGLAPVSVIDIGSNSVRLVVYEGLSRAPAVLFNEKVLCGLGKGLALTGRMHEEGVTRALMALRRFHVLSEQAQAQKLYVLATAAAREAENGPDFIREAEAILGCEIEVLSGEKEALYSAYGVISGFYQPDGIAGDLGGGSLELIDIKDKSCGEGITLPLGGLRLSEQSDGSLEKAATIARKHVKSFAKLLAAGEGRTFYAVGGTWRNIAKLHMEISGYPLHMMQGYELPLEEMLNFLEEVIVSRDSKDPAWQAVSKNRRSLLPFGAIAMREVLRAMKPAKIAFSAQGVREGYLYSLLTEAERESDPLLVAADELAILRARSPEHARELADWSGRTFPVFGIDETEEESRYRQAACLLADISWRAHPDYRGLQALNIIAHSSFVAITHPGRAYIALANYYRFEGLNDNGTTEPLAAMAGERLQELGKLLGGLLRVVYLFSASMPGVVDHLKFRKSDNPDIDLEFVVPHDYCDFAGERLDGRLQQLAKLTGKRLAFVFE, MGSDKIHHHHHHMTSADNILAHASAMRQFSQFAGVAGLDLRRACPPDVYAFVEQAQDAEWLPATAHVDVLQAAAIASGRADLGVAFAMWCNIRGFGPVSLLWDHCTTVDEASRITRRYMHLESAAMRSSTDTDGHEAALRHILMVPARFGGSQFLQATLALQLRIIRMLLGEEWTPIRLELDHPAPPSYRYHQAVFRCPIEFEADRCALVFRKSDLHRPSLRGNANMVQYLERQLAHADSHWPGDLVQQIRYFVAANLTERKANLAHVSGLAGLSSQSLQRRLAERGTTFATILEEVRKQTADEYFRTARRPNLTELSHRLGYTDASAASRFLRQHMSTGARALMAQVRPGRGRPGSARALAAEA, MGSDKIHHHHHHMTSVTPCASSSSEMNDFLQAHPDTQYVDLLISDMNGVVRGKRIERASLHKVYEKGINLPASLFALDINGSTVESTGLGLDIGDADRICFPIPGTLSDEPWQKRPTAQLLMTMHELDGQPFFADPREVLRQVVSKFDDLGLTICAAFELEFYLIDQDNLNGRPQPPRSPISGKRPQSTQVYLIDDLDEYADCLQDMLEAAKEQGLPADAIVKESAPAQFEVNLHHVADPLKACDYAILLKRLIKNVAYDHEMDTTFMAKPYPGQAGNGLHVHISLLDKKTGKNIFASDDPLQSDTLRHAIGGVLETMPASMAFLCPNINSYRRFGAQFYVPNAPSWGLDNRTVAVRVPTDSSENVRLEHRVAGADANPYLMLAAILAGVHHGLTNKVEPEAPIEGNSYEQLEQSLPNNLRDALRALDDSEVLNQYISPDYIDIFVACKESELAEFEVSISDLEYNWYLHTV, MGSDKIHHHHHHMTTESIAVLVIDDDPAILQNIVCYLEDSDFICFGAADGAAGIETFERERPDAVIVDLNMPGMNGRDVIARINAQSPTTPVIVVSGTGVIDEAVESMRVGAWDFLSKPVRRMEELENAVRAGLRRARTMRESNEYKETLERMVKRRTRELQLANDRTEAILLATVQSLSTVINLKDAYTGTHQQRVALIAPAIAEELGMEQRAVEAVRLAALLHDVGKMGLPSEFLTKPSRLDANEMQFIRQHPQLGYDILKDIPFELPIPEMVLQHHERLDGSGYPRGLAGDDILPEARILAVADTVEAICSHRPWRPAHPFSHALHELTAGKNTLYCPDAVNSCIDLITRGDPRLTTFTATIKGLPS, MGSDKIHHHHHHMTTKDISRPVCILGLGLIGGSLLRDLHAANHSVFGYNRSRSGAKSAVDEGFDVSADLEATLQRAAAEDALIVLAVPMTAIDSLLDAVHTHAPNNGFTDVVSVKTAVYDAVKARNMQHRYVGSHPMAGTANSGWSASMDGLFKRAVWVVTFDQLFDGTDINSTWISIWKDVVQMALAVGAEVVPSRVGPHDAAAARVSHLTHILAETLAIVGDNGGALSLSLAAGSYRDSTRVAGTDPGLVRAMCESNAGPLVKALDEALAILHEAREGLTAEQPNIEQLADNGYRSRIRYEARSGQRRAKESVSPTITSSRPVLRLHPGTPNWEKQLIHAETLGARIEVF, MGSDKIHHHHHHMTTSTGKINLLGLTQPEMEQFFDSIGEKRFRAGQVMKWIHHFGVSDFAAMTNVGKVLREKLEAVAEIRPPEVVSEDISADGTRKWVIRVASGSCVETVYIPTDDRGTLCVSSQAGCALDCSFCSTGKQGFNSNLTAAEVIGQVWLANKSFGTVPAKVDRAITNVVMMGMGEPLLNFDNVIAAMKIMMDDLGYGISKRRVTLSTSGVVPMIDELAKHIDVSLALSLHAPNDELRNKLVPINKKYPLKVLLESCMGYMSTLGGKRVLTVEYTLLKDVNDQPEHAAQMIELLRDVPCKINLIPFNPFPHSGYERPSNNAIRRFQDLLHHGGFNVTTRTTRGDDIDAACGQLVGQVNDRTRRSERYIAVRQLSADVELPDSAASH, MGSDKIHHHHHHMTTVIAGVSGAIGGALARRYLSSYPDRSLIGLCRRPETAPDDLRNHSGVRLMAWDAEDEQRLDVAEFKAVLEASGPVYTVIYAGGLLHDGQMFPEKRLEDIDGRSMMRSYQVNCLGFVSLMQRLAPALRGKHFKRIAAVSAKVGSISDNQLGGWYAYRASKAALNMVVKNLSIELSRRYAPLACVSLHPGTTLSSLSQPFQQSLEQLTVHEPEQTASNLFSVLESLDARDNGRFISWDGSDLPW, MGSDKIHHHHHHMTWGFKNRLNTILPDGRAVMLAIDHGYFLGPIHGLEQPLETVKNLLPYTDSLFLTRGVLSSCIPENCSTPMVIRVSGGATVVGKDLANETIVTPVKEAVKQNAIGVGVSVFVGSDYETQTVTNLANVVSEAHDYCLPVLGITAVAKELQKREARFLALASRVCVEMGADIIKTYYCEGFEKITSTCPAPVVIAGGPKLDSIEDALNITYNALQEGAIGVDMGRNIWQSEHPAAMIQAIHGIVKNGLNVKEALQLYEDVKN, MGSDKIHHHHHHMTWNLAGSYSETCSCELMCPCNMSFDHGATYDFCRVTLAFNVHEGSVEGTDIAGRKVVLIADTPKVMTDGNWRVGVFVDDGASEEQFDKLVQVFGGQLGGPMAGLAPLIGEMLGVQRAAIDIEDDGLLHSVRVGDEIDFQIQDIVPFGVETGEPVRFAGMFHPVGSDLVMAEAKRTRINAFGITYEGKTGLSKSSFTWAA, MGSDKIHHHHHHMVAATSQNTFDSPRSPLYNFTMDIRPLSDVAGVILVGGRSRRMGRDKALIPLGGKPLVERVIDAFRPLFERILLVGDRGERFASYGLPVFPDIHPGSALGGLYTGLVRAGTPHVFVSACDVPWPDPRVIARLCSLREGFDVVVPRTVGGSEPLFAVYGTGCLPAMERMLREGNYRIYDFYPEVRTRYVEQAELADLVTPARTFVNVNTPEEFETIRNREEGMAIKAVSFVAKSGTGKTTLLEKVIAELKGRGYRIGVIKHDAHRFDIDHPGKDSHRLAAAGADTMLIASPEKLALVKKYDESPPLDELLATYFGDVDIVLTEGFKKSSLPKIEVHRMERSATLLCRGEEHDPTLVAVASDAALALDVPVFDLNNPAQVADFVERTFLAAGAA, MGSDKIHHHHHHMVAKKKILFFMWSFSLGGGAEKILSTIVSNLDPEKYDIDILEMEHFDKGYESVPKHVRILKSLQDYRQTRWLRAFLWRMRIYFPRLTRRLLVKDDYDVEVSFTIMNPPLLFSKRREVKKISWIHGSIEELLKDSSKRESHRSQLDAANTIVGISKKTSNSIKEVYPDYTSKLQTIYNGYDFQTILEKSQEKIDIEIAPQSICTIGRIEENKGSDRVVEVIRLLHQEGKNYHLYFIGAGDMEEELKKRVKEYGIEDYVHFLGYQKNPYQYLSQTKVLLSMSKQEGFPGVYVEALSLGLPFISTDVGGAEELSQEGRFGQIIESNQEAAQAITNYMTSASNFDVDEASQFIQQFTITKQIEQVEKLLEE, MGSDKIHHHHHHMVDVLVIGGGNAALCAALTAREAGASVLLLEAAPREWRGGNSQHTRNLRCMHDAPQDVLVESYPEEEFWQDLWRVTDGNTNEALARLVIRTSSQCRDWMRKHGVNFQPPLSGALHVARTNAFFMGGGKALVNAYYRSAERLGVQVRYNTPVHALELHDGEFVAALAGSERITAKACVLAAGGFESNREWLREAWGENARGEWPADNFLIRGTRFNQGVLLKFMMDAGADIIGDPSQSHCVAIDARAPLYDGGICTRVDCVSLGIVVNRDAERFYDEGEDFWPKRYAIWGRLVAQQPGQIGYSIIDSKAIGHFMPPVFPGAQANTLAELACQLGLDAEKFTHTVTQYNQACQPGHFDHTLLDDCATKNLTPAKTHWARPLDAPPYYGYALRPGITFTYLGLKVNERAAVHFAGHPSRNLFVAGEMMAGNVLGKGYTAGVGMSIGTTFGRIAGIEAARAAHKEAQHETA, MGSDKIHHHHHHMVEHRGFDVLSLPWLDVPRQAFLTQLQTQKVPHAQLVGIDSAYGGELLSVFMARAAMCSQPTHTGGCGFCKSCQLFDAGNHPDFYQIEADGHQIKVDQIRELCSRLSATAQQSGRRVAIIHHSERLNSASANALLKTLEEPGKDTLLLLHSDTPARLMATISSRCQRLPFVAPSKTLIKNWLIQQCQIQEDVTWCLSVVGGPLKLAESLQSNSTQPSRYQTLLGFRKDWAQSLSSGHLCASLLIISEQQIIDALKVLYLLLRQILLKNGNQDAYVQAQIGNLAAKVMGMCHSLSAMPSVNYLGLCQSYVLEYRDITNK, MGSDKIHHHHHHMVKIKGLNGNLVFIFGPGSFDEYLSFLEEKLTANKQLFSGSRVIFKGEELKKLSHSQIASLQELCLRHGVIMNNNAVTVNKGSSKDLVIYRNLRSGQKLRSEGSVIIWGDVHESAEILAAGDIIVLGKLDGIAHAGCYGDMNRLIFALSLSPGQIRIGDRLSRSPEDPDKSPHPEIAFWDGENICIKAYSSRSGLRG

— the DeepSol protein solubility set
